These results are taken from patent US20240116985A1, “STAPLED PEPTIDES AND METHODS THEREOF” (priority 2020, published 2024).

By IC50 is commonly meant the point on the concentration scale where inhibition reaches its midpoint. The term EC50 denotes the concentration at which the effect is half-maximal.

B1: I-2143 (peptide)
peptide: Ac-[αAllylPro]D[tBuAla][B5]NTAAFN[PyrS2][3Thi][Bta]A-NH2
modifications: staple 1-4, 4-11; also: later eluting HPLC isomer
B2: I-2139 (peptide)
peptide: Ac-[αAllylPro]D[tBuAla][B5]NTAAFN[PyrS2][3Thi][Bta]W-NH2
modifications: staple 1-4, 4-11; also: later eluting HPLC isomer
B3: I-2155 (peptide)
peptide: Ac-[αAllylPro]D[tBuAla][B5]D[Phe(3-COOH)]AAFL[PyrS2][Phe(3-Br)][Phe(2-CF3)]Q-NH2
modifications: staple 1-4, 4-11
B4: I-2149 (peptide)
peptide: Ac-[αAllylPro]D[tBuAla][B5]TTAAFN[PyrS2][3Thi][Bta]Q-NH2
modifications: staple 1-4, 4-11; also: later eluting HPLC isomer
B5: I-2141 (peptide)
peptide: Ac-[αAllylPro]D[tBuAla][B5]NTAAFN[PyrS2][3Thi][Bta]H-NH2
modifications: staple 1-4, 4-11; also: later eluting HPLC isomer
B6: I-2148 (peptide)
peptide: Ac-[αAllylPro]D[tBuAla][B5]TTAAFN[PyrS2][3Thi][Bta]Q-NH2
modifications: staple 1-4, 4-11; also: earlier eluting HPLC isomer
B7: I-2138 (peptide)
peptide: Ac-[αAllylPro]D[tBuAla][B5(3)]NTAAFN[PyrS2″][3Thi][Bta]W-NH2
modifications: staple 1-4, 4-11; also: earlier eluting HPLC isomer
B8: I-2146 (peptide)
peptide: Ac-[αAllylPro]D[tBuAla][B5]NTAAFH[PyrS2][3Thi][Bta]Q-NH2
modifications: staple 1-4, 4-11; also: earlier eluting HPLC isomer
B9: I-2147 (peptide)
peptide: Ac-[αAllylPro]D[tBuAla][B5]NTAAFH[PyrS2][3Thi][Bta]Q-NH2
modifications: staple 1-4, 4-11; also: later eluting HPLC isomer
B10: I-940 (peptide)
peptide: Ac-[αAllylPro]D[tBuAla][B5(22)]D[TfeGA]AAFN[PyrS2][3Thi][Bta]S-NH2
modifications: staple 1-4, 4-11; also: staple isomer, earlier eluting HPLC peak
B11: I-2153 (peptide)
peptide: Ac-[αAllylPro]D[tBuAla][B5]D[Phe(3-COOH)]AAFL[PyrS2][Phe(3-Br)]FQ-NH2
modifications: staple 1-4, 4-11
B12: I-2140 (peptide)
peptide: Ac-[αAllylPro]D[tBuAla][B5]NTAAFN[PyrS2][3Thi][Bta]H-NH2
modifications: staple 1-4, 4-11; also: earlier eluting HPLC isomer
B13: I-2145 (peptide)
peptide: Ac-[αAllylPro]D[tBuAla][B5]NTAAFT[PyrS2][3Thi][Bta]F-NH2
modifications: staple 1-4, 4-11; also: later eluting HPLC isomer
B14: I-2144 (peptide)
peptide: Ac-[αAllylPro]D[tBuAla][B5]NTAAFT[PyrS2][3Thi][Bta]F-NH2
modifications: staple 1-4, 4-11; also: earlier eluting HPLC isomer
B15: I-2277 (peptide)
peptide: Ac-[αAllylPro]D[tBuAla][B5(32)]D[Phe(3-COOH)]AAFL[PyrS2][3Thi][Bta]NALL-NH2
modifications: staple 1-4, 4-11; also: earlier eluting staple isomer
B16: I-2274 (peptide)
peptide: Ac-[αAllylPro]D[tBuAla][B5(3)]D[Phe(3-COOH)]AAFL[PyrS2″][3Thi][Bta]NL-NH2
modifications: staple 1-4, 4-11
B17: I-2282 (peptide)
peptide: Ac-[αAllylPro]D[tBuAla][B5(4)]D[Phe(3-COOH)]AAFL[PyrS2][3Thi][Bta]NALALA-NH2
modifications: staple 1-4, 4-11; also: later eluting staple isomer
B18: I-2269 (peptide)
peptide: Ac-[αAllylPro]D[tBuAla][B5(3)]D[Phe(3-COOH)]AAFL[PyrS2″][3Thi][Bta]NAAAAAAA-NH2
modifications: staple 1-4, 4-11
B19: I-2278 (peptide)
peptide: Ac-[αAllylPro]D[tBuAla][B5(32)]D[Phe(3-COOH)]AAFL[PyrS2][3Thi][Bta]NALL-NH2
modifications: staple 1-4, 4-11; also: later eluting staple isomer
B20: I-2276 (peptide)
peptide: Ac-[αAllylPro]D[tBuAla][B5(32)]D[Phe(3-COOH)]AAFL[PyrS2][3Thi][Bta]NLLL-NH2
modifications: staple 1-4, 4-11; also: later eluting staple isomer (HPLC peak)
B21: I-2284 (peptide)
peptide: Ac-[αAllylPro]D[tBuAla][B5(4)]D[Phe(3-COOH)]AAFL[PyrS2][3Thi][Bta]NALALALA-NH2
modifications: staple 1-4, 4-11; also: later eluting staple isomer
B22: I-2291 (peptide)
peptide: Ac-[αAllylPro]D[tBuAla][B5(4)]D[Phe(3-COOH)]AAFL[PyrS2][3Thi][Phe(3,4-Me2)]Q-NH2
modifications: staple 1-4, 4-11
B23: I-2270 (peptide)
peptide: Ac-[αAllylPro]D[tBuAla][B5(3)]D[Phe(3-COOH)]AAFL[PyrS2″][3Thi][Bta]NAAAAAAAAA-NH2
modifications: staple 1-4, 4-11
B24: I-2293 (peptide)
peptide: Ac-[αAllylPro]D[tBuAla][B5(4)]D[Phe(3-COOH)]AAFL[PyrS2][Phe(2-CF3)][Phe(3,4-Me2)]S-NH2
modifications: staple 1-4, 4-11
B25: I-2283 (peptide)
peptide: Ac-[αAllylPro]D[tBuAla][B5(4)]D[Phe(3-COOH)]AAFL[PyrS2][3Thi][Bta]NALALALA-NH2
modifications: staple 1-4, 4-11; also: earlier eluting staple isomer
B26: I-2287 (peptide)
peptide: Ac-[αAllylPro]D[tBuAla][B5(4)]D[Phe(3-COOH)]AAFL[PyrS2][3Thi][3Br4FF]Q-NH2
modifications: staple 1-4, 4-11
B27: I-2289 (peptide)
peptide: Ac-[αAllylPro]D[tBuAla][B5(4)]D[Phe(3-COOH)]AAFL[PyrS2][Phe(2-CF3)][3Br4FF]S-NH2
modifications: staple 1-4, 4-11
B28: I-2286 (peptide)
peptide: BrAc-[αAllylPro]D[tBuAla][B5(4)]D[Phe(3-COOH)]AAFL[PyrS2][Phe(2-Cl)][Bta]A-NH2
modifications: staple 1-4, 4-11
B29: I-2275 (peptide)
peptide: Ac-[αAllylPro]D[tBuAla][B5(32)]D[Phe(3-COOH)]AAFL[PyrS2][3Thi][Bta]NLLL-NH2
modifications: staple 1-4, 4-11; also: earlier eluting staple isomer (HPLC peak)
B30: I-2290 (peptide)
peptide: Ac-[αAllylPro]D[tBuAla][B5(4)]D[Phe(3-COOH)]QAFL[PyrS2][Phe(2-CF3)][3Br4FF]A-NH2
modifications: staple 1-4, 4-11
B31: I-2272 (peptide)
peptide: Ac-[αAllylPro]D[tBuAla][B5(3)]D[Phe(3-COOH)]AAFL[PyrS2″][3Thi][Bta]NA[Aib]A[Aib]A-NH2
modifications: staple 1-4, 4-11
B32: I-2281 (peptide)
peptide: Ac-[αAllylPro]D[tBuAla][B5(4)]D[Phe(3-COOH)]AAFL[PyrS2][3Thi][Bta]NALALA-NH2
modifications: staple 1-4, 4-11; also: earlier eluting staple isomer
B33: I-2273 (peptide)
peptide: Ac-[αAllylPro]D[tBuAla][B5(3)]D[Phe(3-COOH)]AAFL[PyrS2″][3Thi][Bta]NA[Aib]A[Aib]A[Aib]A-NH2
modifications: staple 1-4, 4-11
B34: I-2285 (peptide)
peptide: BrAc-[αAllylPro]D[tBuAla][B5(32)]DDAAFQ[PyrS2][3Thi][Bta]H-NH2
modifications: staple 1-4, 4-11

Starred links: 1 amine or outer side, 2 acyl side, 3 side chain; linkers in the order of their positions; H or OH if unused. Positions of bridges follow the written chain, without caps; N, C: chain ends. Non-standard residues stand in square brackets, D forms with d. Primed or numbered codes have the meaning given here. *: point of attachment. PyrS2″ = (S)-3-amino-1-((pent-4-en-1-yloxy)carbonyl)pyrrolidine-3-carboxylic acid (stapling residue), C=CCCCOC(=O)N1CC[C@@](N[*:1])(C(=O)[*:2])C1; B5(32) = 2-amino-2-(pent-4-en-1-yl)hept-6-enoic acid (bis-4-pentenylglycine, two alkene side chains), C=CCCCC(CCCC=C)(N[*:1])C(=O)[*:2]; B5(4) = 2,2-bis(4-pentenyl)glycine = 2-amino-2-(pent-4-en-1-yl)hept-6-enoic acid (stitching residue), C=CCCCC(CCCC=C)(N[*:1])C(=O)[*:2]; TfeGA = (S)-2-amino-3-((carboxymethyl)(2,2,2-trifluoroethyl)amino)propanoic acid, O=C([C@H](CN(CC(=O)[*:3])CC(F)(F)F)N[*:1])[*:2]; PyrS2 = (S)-3-amino-1-((pent-4-en-1-yloxy)carbonyl)pyrrolidine-3-carboxylic acid, C=CCCCOC(=O)N1CC[C@@](N[*:1])(C(=O)[*:2])C1; B5(22) = 2-amino-2-(pent-4-en-1-yl)hept-6-enoic acid (two alkene side chains), C=CCCCC(CCCC=C)(N[*:1])C(=O)[*:2]; 3Br4FF = (S)-2-amino-3-(3-bromo-4-fluorophenyl)propanoic acid, O=C([C@H](Cc1ccc(F)c(Br)c1)N[*:1])[*:2]; B5(3) = 2,2-bis(4-pentenyl)glycine (stitching residue), C=CCCCC(CCCC=C)(N[*:1])C(=O)[*:2]; B5 = 2-amino-2-(pent-4-en-1-yl)hept-6-enoic acid, C=CCCCC(CCCC=C)(N[*:1])C(=O)[*:2]; Phe(3-COOH) = N[C@@H](Cc1cccc(C(=O)O)c1)C(=O)O; Phe(2-CF3) = N[C@@H](Cc1ccccc1C(F)(F)F)C(=O)O; Phe(3,4-Me2) = Cc1ccc(C[C@H](N)C(=O)O)cc1C; Phe(3-Br) = N[C@@H](Cc1cccc(Br)c1)C(=O)O; Phe(2-Cl) = N[C@@H](Cc1ccccc1Cl)C(=O)O; Bta = N[C@@H](Cc1csc2ccccc12)C(=O)O; αAllylPro = C=CC[C@@]1(C(=O)O)CCCN1; tBuAla = CC(C)(C)C[C@H](N)C(=O)O; 3Thi = N[C@@H](Cc1ccsc1)C(=O)O; Aib = CC(C)(N)C(=O)O; BrAc = O=C(CBr)*

The target in one test is full-length beta-Catenin (Uniprot ID P35222) (Homo sapiens (Human)) (UniProt P35222). Kind of test: fluorescence polarization competition; full-length beta-catenin, 5FAM-TCF4(10-53) probe. For orientation: Polarisation of emitted light reports the rotation of a fluorescent probe.
Target sequence in this assay (P35222 2-781 limits assumed): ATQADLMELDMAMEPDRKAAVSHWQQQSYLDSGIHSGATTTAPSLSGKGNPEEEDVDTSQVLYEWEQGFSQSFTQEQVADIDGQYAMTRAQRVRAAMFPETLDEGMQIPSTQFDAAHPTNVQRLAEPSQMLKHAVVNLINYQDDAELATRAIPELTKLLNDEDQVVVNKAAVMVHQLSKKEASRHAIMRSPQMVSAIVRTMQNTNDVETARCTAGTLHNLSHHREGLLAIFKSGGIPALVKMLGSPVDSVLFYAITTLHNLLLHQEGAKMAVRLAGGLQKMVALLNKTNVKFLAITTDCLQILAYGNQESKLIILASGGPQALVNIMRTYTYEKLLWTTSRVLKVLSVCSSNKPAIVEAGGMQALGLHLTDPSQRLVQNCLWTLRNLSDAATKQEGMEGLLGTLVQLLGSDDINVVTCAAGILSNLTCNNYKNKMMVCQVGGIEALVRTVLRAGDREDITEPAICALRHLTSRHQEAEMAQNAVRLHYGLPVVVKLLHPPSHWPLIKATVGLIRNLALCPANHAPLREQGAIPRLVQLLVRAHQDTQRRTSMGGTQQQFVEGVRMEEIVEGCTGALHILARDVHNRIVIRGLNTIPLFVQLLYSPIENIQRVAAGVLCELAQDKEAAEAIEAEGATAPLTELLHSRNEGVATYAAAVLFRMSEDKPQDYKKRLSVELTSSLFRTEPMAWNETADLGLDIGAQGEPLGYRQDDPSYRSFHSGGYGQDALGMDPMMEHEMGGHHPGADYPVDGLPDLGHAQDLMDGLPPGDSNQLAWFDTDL
Consider B1, for which the IC50 was found to be 217 nM. Same read-out and setting: under B2 stands 970 nM; under B3, 10000 nM; under B4, 7180 nM. Same read-out and setting: under B5 stands 310 nM.

In turn, B6 gave an IC50 of 10000 nM. This IC50 is about 32-fold higher than that of the molecule before.

As for B7, the IC50 was found to be 1010 nM. Same read-out and setting: under B8 stands 248 nM; under B9, 390 nM. On the same count and under the same terms, under B10 stands 1740 nM. Same read-out and setting: under B11 stands 1480 nM. B12 displayed an IC50 of 233 nM. For the molecule B13, the IC50 was determined as 2070 nM. On the same count and under the same terms, under B14 stands 2020 nM.

For a further test the target is unchanged. Kind of test: fluorescence polarization competition; full-length beta-catenin, competitor probe 5FAM-TCF4(10-53).
Target sequence in this assay (P35222 whole entry): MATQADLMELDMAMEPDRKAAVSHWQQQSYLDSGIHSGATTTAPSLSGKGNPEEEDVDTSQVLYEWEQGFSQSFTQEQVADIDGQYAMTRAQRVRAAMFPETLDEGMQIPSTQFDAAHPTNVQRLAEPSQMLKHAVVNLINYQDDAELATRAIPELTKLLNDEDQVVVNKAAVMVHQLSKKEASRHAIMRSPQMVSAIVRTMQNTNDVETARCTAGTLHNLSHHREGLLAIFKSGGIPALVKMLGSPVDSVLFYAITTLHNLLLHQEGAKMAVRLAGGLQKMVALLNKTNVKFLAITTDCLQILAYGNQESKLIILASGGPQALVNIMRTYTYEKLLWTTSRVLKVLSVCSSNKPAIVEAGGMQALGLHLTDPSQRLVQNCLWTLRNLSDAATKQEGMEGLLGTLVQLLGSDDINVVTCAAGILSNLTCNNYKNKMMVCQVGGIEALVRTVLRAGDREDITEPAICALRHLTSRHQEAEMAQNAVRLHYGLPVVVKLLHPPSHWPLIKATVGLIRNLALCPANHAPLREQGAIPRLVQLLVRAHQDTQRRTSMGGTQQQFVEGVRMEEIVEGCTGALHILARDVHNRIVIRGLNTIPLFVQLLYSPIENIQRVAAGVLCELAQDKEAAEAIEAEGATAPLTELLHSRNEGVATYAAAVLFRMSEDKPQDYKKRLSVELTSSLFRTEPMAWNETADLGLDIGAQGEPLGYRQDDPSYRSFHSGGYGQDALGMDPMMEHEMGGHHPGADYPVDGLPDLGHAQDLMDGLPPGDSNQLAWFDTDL
B15 returned an IC50 of 114 nM. B16 yielded an IC50 of 10 nM. Compared with the last molecule, the IC50 is about 11-fold lower. The molecule B17 registered a half-inhibitory concentration (IC50) of 156 nM. In turn, B18 came in with an IC50 of 20 nM. Same read-out and setting: under B19 stands 120 nM. With B20, the IC50 came to 158 nM. This IC50 and that of the molecule before are within 1.5-fold of each other. In the case of B21, the IC50 stood at 2680 nM. Same read-out and setting: under B22 stands 5 nM; under B23, 40 nM; under B24, 15 nM. Still for that read-out and setting: under B25 stands 2860 nM.

As to B26, the IC50 was 7 nM. Compared with the last molecule, the IC50 is about 410-fold lower. Still for that read-out and setting: under B27 stands 8 nM; under B28, 88 nM. The same measure, in the same setting: under B29 stands 117 nM. On the same count and under the same terms, under B30 stands 14 nM; under B31, 43 nM; under B32, 138 nM. Consider B33, for which the IC50 stood at 107 nM. On the same count and under the same terms, under B34 stands 94 nM.

Another test shares this target. Description: fluorescence polarization competition; 10 nM full-length beta-catenin + 10 nM 5FAM-TCF4(10-53) probe.
Target sequence in this assay (P35222 whole entry): as above
For B10, the EC50 was found to be 1740 nM.
